Test results: patent publication US20050152888A1

Columns and labels:
[1] = molecular target: Pre10 proteasome subunit C-terminally fused with Fpr1 (strain Pre10-FPR1) (S. cerevisiae) (UniProt P21242); experiment: cell-based or functional assay
[2] = molecular target: Rpn10 proteasome subunit C-terminally fused with Fpr1 (strain Rpn10-FPR1) (S. cerevisiae) (UniProt P38886); experiment: cell-based or functional assay
Sequence of Rpn10 proteasome subunit C-terminally fused with Fpr1 (strain Rpn10-FPR1) (S. cerevisiae) (P38886 other isoform, or with tags, fused parts or gaps): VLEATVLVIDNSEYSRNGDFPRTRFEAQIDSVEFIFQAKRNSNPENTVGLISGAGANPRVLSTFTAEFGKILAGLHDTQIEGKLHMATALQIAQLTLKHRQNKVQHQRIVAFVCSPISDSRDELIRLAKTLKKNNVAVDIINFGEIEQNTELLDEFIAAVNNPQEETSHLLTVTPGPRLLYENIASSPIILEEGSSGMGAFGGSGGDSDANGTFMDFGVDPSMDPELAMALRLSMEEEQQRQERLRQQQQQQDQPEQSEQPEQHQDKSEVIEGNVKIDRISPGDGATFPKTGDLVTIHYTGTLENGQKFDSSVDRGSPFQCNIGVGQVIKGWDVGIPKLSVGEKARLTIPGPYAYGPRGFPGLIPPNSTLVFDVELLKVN

Sequence of Pre10 proteasome subunit C-terminally fused with Fpr1 (strain Pre10-FPR1) (S. cerevisiae) (P21242 other isoform, or with tags, fused parts or gaps): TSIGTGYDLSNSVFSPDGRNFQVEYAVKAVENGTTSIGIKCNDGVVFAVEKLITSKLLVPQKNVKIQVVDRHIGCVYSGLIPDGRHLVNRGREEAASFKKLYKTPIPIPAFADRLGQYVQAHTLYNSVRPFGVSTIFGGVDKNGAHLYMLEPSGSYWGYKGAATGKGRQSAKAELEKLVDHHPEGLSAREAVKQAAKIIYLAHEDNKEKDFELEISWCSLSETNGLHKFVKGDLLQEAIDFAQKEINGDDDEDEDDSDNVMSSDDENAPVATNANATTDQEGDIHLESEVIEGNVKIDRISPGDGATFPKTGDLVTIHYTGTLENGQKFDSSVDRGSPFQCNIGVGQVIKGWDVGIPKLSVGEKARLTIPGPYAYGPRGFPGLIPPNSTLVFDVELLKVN

HA epitope-tagged Tor-His3 expressed in yeast (p415-TOR-link-HIS3HA) (from UniProt P35169 1883-2078; P06633 1-220)
half-life of reporter degradation in vivo with rapamycin (cycloheximide chase, anti-HA Western) [1]: 20 to 30 min | half-life of reporter degradation in vivo with rapamycin (cycloheximide chase, anti-HA Western) [2]: 20 to 30 min
